One substance from paper PMC4981287 can be followed below.

Test [1] deals with HiLyteFluor488-labeled amyloid-β(1-40) fibrils (UniProt P05067).
Test [2] has as its target HiLyteFluor488-labeled amyloid-β(1-40) oligomers formed from the disaggregation of fibrils (UniProt P05067). The test can be described thus: confocal two-color coincidence detection.
Test [3] has as its target HiLyteFluor488-labeled amyloid-β(1-40) fibrils (UniProt P05067). The test can be described thus: confocal two-color coincidence detection.

HiLyteFluor488-labeled amyloid-β(1-40) oligomers formed from the disaggregation of fibrils, sequence (P05067 672-711): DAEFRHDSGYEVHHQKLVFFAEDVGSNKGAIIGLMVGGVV
HiLyteFluor488-labeled amyloid-β(1-40) fibrils, sequence (P05067 672-711): as above

On to “AlexaFluor647-labeled αB-crystallin (from UniProt P02511 1-175) (natural protein)”, for which the Kd (usually the free concentration of one partner at which half of the binding sites on the other are occupied at equilibrium, for simple one-to-one binding) in test [1] worked out at 1200 nM. In test [2], the half-time for dissociation turned out to be 17 h and the stoichiometry N (αB-crystallin molecule per Aβ monomer) amounted to 1. Moreover, the koff (as a rule, a measure of how fast the partners let go of each other) in test [3] worked out at 4.4e-05 s⁻¹.
